We go through 28 sequences from the Immune Epitope Database (IEDB).

Usually Kd stands for the equilibrium constant for the complex coming apart. In general, IC50 refers to the midpoint of a concentration-inhibition curve. A lower IC50 goes with greater potency.

Test [1] concerns the target HLA-B*35:01. Kind of test: IEDB peptide-MHC binding, purified MHC/competitive/radioactivity; filed as Kd, often an IC50 or EC50 that approximates it; ≥ and ≤ were set here for values at or beyond the usual limits of such assays.
The target of test [2] is HLA-A*24:02. Put plainly: IEDB peptide-MHC binding, purified MHC/competitive/fluorescence; ≥ and ≤ were set here for values at or beyond the usual limits of such assays.
Test [3] deals with HLA-B*15:01. Kind of test: IEDB peptide-MHC binding, purified MHC/direct/fluorescence; filed as Kd, often an IC50 or EC50 that approximates it; ≥ and ≤ were set here for values at or beyond the usual limits of such assays. The following applies: source organism: SARS-CoV1.
The target of test [4] is HLA-A*69:01. The description is as above. The following applies: source organism: SARS-CoV1.
The target of test [5] is HLA-B*58:01. Described as above. The following applies: source organism: SARS-CoV1.
The target of test [6] is HLA-B*07:02. Described as above.
Test [7] deals with HLA-A*11:01. The test is described as above. The following applies: source organism: SARS-CoV1.
In test [8] the target is HLA-A*02:01. Put plainly: IEDB peptide-MHC binding, purified MHC/competitive/fluorescence; filed as Kd, often an IC50 or EC50 that approximates it; ≥ and ≤ were set here for values at or beyond the usual limits of such assays.
The target of test [9] is HLA-A*02:01. Put plainly: IEDB peptide-MHC binding, purified MHC/competitive/fluorescence; ≥ and ≤ were set here for values at or beyond the usual limits of such assays.
Test [10] deals with HLA-B*40:01. Put plainly: IEDB peptide-MHC binding, purified MHC/direct/fluorescence; filed as Kd, often an IC50 or EC50 that approximates it; ≥ and ≤ were set here for values at or beyond the usual limits of such assays.
Test [11] concerns the target HLA-A*02:01. Kind of test: IEDB peptide-MHC binding, purified MHC/competitive/radioactivity; filed as Kd, often an IC50 or EC50 that approximates it; ≥ and ≤ were set here for values at or beyond the usual limits of such assays.
In test [12] the target is HLA-A*26:01. Described as above.
Test [13] concerns the target HLA-A*24:02. The description is as above. Conditions: source organism: Mammarenavirus mopeiaense.
Test [14] has as its target HLA-A*30:01. The description is as above.
In test [15] the target is HLA-A*23:01. Described as above. Conditions: source organism: Mammarenavirus mopeiaense.
For test [16], the target named is HLA-A*32:01. Described as above.
The target of test [17] is HLA-A*01:01. The description is as above.
Test [18] deals with HLA-A*30:02. The test is described as above.
The target in test [19] is HLA-A*29:02. Described as above.
Test [20] deals with HLA-B*27:05. Put plainly: IEDB peptide-MHC binding, purified MHC/direct/fluorescence; filed as Kd, often an IC50 or EC50 that approximates it; ≥ and ≤ were set here for values at or beyond the usual limits of such assays. The following applies: source organism: Tacaribe virus strain V7.
Setting [21] is: source organism: Zaire ebolavirus.
The mark [22] stands for this setting: source organism: Sudan ebolavirus.
Where [23] appears, read: source organism: Mammarenavirus mopeiaense.
The mark [24] stands for this setting: source organism: Mammarenavirus guanaritoense.
The mark [25] stands for this setting: source organism: Vaccinia virus.
Where [26] appears, read: source organism: Lymphocytic choriomeningitis virus (strain Armstrong).

Regarding WALCESITL, the dissociation constant (Kd) in test [1] (source organism: Dengue virus 1 Brazil/97-11/1997) came to 75.7 nM.

On to EDPSSGYYS, for which the IC50 in test [2] (setting [21]) was not below 185000 nM. In the case of TTLPVNVAF, the Kd in [3] is 1760 nM; in [4], 20 nM; in test [5], 328 nM; in [6] (source organism: SARS-CoV1) it was 5760 nM; in test [7], not below 27300 nM. In turn, RPRHQGVMV gave a Kd in test [6] (source organism: Homo sapiens) of 51.5 nM.

NLATSIYTI: in test [8] (source organism: Variola virus), the Kd came to 1.1 nM. On to LYDRLASTV, for which the figures for the IC50 in [9] (setting [22]) and in test [2] (setting [22]) were 7480 nM and 1320 nM, respectively. DECEFELAL gave a Kd in [10] (source organism: Mycobacterium tuberculosis) of 803 nM. Regarding YRGTTFAEG, the half-inhibitory concentration (IC50) in test [2] (setting [21]) was not below 147000 nM. Regarding LLGCAANWI, the Kd in [11] (source organism: Hepatitis B virus subtype ayw) was not below 5000 nM. Turning to LCLSGEGWPY, the Kd is not below 69700 nM in test [12] (setting [23]); not below 70300 nM in test [13]; not below 70400 nM in test [14] (setting [23]); not below 70000 nM in test [15]; not below 53200 nM in [16] (setting [23]). Regarding EFSRSILWDY, the Kd is 748 nM in test [17] (setting [24]); 210 nM in [18] (setting [24]); 10300 nM in test [12] (setting [24]); 1400 nM in test [14] (setting [24]); not below 21500 nM in test [16] (setting [24]); 1130 nM in test [19] (setting [24]).

As for SLLMWITQCFL, in test [11] (source organism: Homo sapiens), the equilibrium dissociation constant (Kd) was not below 50000 nM. In turn, IRELMSVPY returned a Kd in [20] not below 20000 nM. On to WALCEALTL, for which the Kd in test [1] (source organism: Dengue virus 2 Jamaica/1409/1983) worked out at 641 nM. On to ELLEPLYDV, for which the Kd in test [8] (source organism: Escherichia coli) was found to be 1.8 nM. In test [2] (setting [21]), EAMNEENRF yielded an IC50 not below 147000 nM. On to LFLPKLVVG, for which the IC50 was found to be 35300 nM in test [9] (setting [21]) and 1560 nM in test [2] (setting [21]). Turning to FGNLSPETL, the IC50 worked out at 59500 nM in test [9] (setting [25]) and 57800 nM in [2] (setting [25]). As to LEHGLFPQL, the IC50 was not below 73200 nM in test [9] (setting [21]) and 8300 nM in [2] (setting [21]). As to FTSDVKAAVI, the Kd is 431 nM in test [17] (setting [26]); not below 63000 nM in test [18] (setting [26]); 6430 nM in test [12] (setting [26]); 4970 nM in [14] (setting [26]); not below 69900 nM in test [16] (setting [26]); not below 30600 nM in [19] (setting [26]). In the case of IPRRIRQGL, in test [6] (source organism: Human immunodeficiency virus type 1 (WMJ2 ISOLATE)), the Kd was found to be 94.8 nM. For the sequence IPFSTEDGQG, the Kd in [1] (source organism: Dengue virus 3 Martinique/1243/1999) is 1730 nM. For NAPDDLVLF, in test [2] (setting [21]), the IC50 is not below 107000 nM. DLMSMSDGEF: the Kd in test [17] (setting [24]) was not below 41200 nM; in test [18] (setting [24]), 1920 nM; in [12] (setting [24]) it was 673 nM; in [14] (setting [24]), not below 70400 nM; in test [16] (setting [24]), not below 22900 nM; in test [19] (setting [24]), 8870 nM. QVKDEKLNL displayed an equilibrium dissociation constant (Kd) in test [8] (source organism: Variola virus) of 324 nM. As for RTNDWDFVV, the equilibrium dissociation constant (Kd) in test [11] (source organism: dengue virus type 2) turned out to be 167 nM. Turning to GEEFFHQYL, the Kd in test [10] (source organism: Mammarenavirus juninense) came to 10.2 nM. In turn, FTFSNVCESV registered a Kd in test [8] (source organism: Vaccinia virus Tian Tan) of 8.4 nM.
